Experimental findings from patent publication US20090155176A1 are described below.

Bounds are passed on as bounds.

Holding throughout (details): remark: other sources report otherwise
Assay [1] deals with T1, LFA-1 (lymphocyte function-associated antigen-1), purified heterodimer captured on ELISA plates (human), P20701. The assay is described as follows: LFA-1/ICAM-1 ELISA: sICAM-1 titrated against ICAM-1-Ig on antibody-captured LFA-1; reference compound 3 (2 nM IC50).
The target of assay [2] is T1, LFA-1 (lymphocyte function-associated …).
Assay [3] has the same target. The assay is described as follows: LFA-1/small molecule ELISA: sICAM-1 titrated against 25 nM fluorescein-labelled compound 2B on antibody-captured LFA-1. (An ELISA detects its analyte on a solid surface through an enzyme-linked reagent.)

In general, IC50 refers to the midpoint of a concentration-inhibition curve. A lower IC50 goes with higher potency.

T1 sequence (P20701 26-1170 limits assumed, form in doubt, chain 1 of 2): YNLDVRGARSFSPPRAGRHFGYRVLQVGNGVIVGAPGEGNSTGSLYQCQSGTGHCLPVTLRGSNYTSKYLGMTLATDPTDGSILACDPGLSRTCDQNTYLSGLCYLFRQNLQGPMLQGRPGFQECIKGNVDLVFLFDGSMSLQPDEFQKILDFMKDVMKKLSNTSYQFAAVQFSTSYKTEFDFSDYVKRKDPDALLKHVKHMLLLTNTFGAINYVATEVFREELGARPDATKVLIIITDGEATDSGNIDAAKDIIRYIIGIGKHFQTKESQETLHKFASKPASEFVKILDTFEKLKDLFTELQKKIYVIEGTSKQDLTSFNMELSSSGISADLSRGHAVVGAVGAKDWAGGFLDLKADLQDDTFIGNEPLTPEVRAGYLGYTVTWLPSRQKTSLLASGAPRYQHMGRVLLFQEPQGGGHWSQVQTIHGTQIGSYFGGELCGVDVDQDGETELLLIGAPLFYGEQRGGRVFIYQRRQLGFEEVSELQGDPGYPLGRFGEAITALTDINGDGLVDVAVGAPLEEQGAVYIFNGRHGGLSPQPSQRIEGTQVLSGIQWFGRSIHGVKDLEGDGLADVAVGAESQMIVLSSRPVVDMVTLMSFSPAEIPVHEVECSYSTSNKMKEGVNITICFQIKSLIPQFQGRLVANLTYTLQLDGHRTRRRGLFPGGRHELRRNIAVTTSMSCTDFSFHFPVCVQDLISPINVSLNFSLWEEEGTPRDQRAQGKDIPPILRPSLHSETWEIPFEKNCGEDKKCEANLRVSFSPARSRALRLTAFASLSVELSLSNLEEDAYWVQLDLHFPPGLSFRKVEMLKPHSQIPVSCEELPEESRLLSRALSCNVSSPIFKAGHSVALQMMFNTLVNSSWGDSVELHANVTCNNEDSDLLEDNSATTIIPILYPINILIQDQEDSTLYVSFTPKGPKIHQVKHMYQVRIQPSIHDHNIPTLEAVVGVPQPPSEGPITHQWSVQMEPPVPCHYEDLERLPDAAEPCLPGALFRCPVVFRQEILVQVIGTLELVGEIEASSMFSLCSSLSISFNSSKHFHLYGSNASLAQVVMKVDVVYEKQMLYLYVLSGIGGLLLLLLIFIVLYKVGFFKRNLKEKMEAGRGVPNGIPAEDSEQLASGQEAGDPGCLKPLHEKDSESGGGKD
T1 sequence (P05107 23-769 limits assumed, form in doubt, chain 2 of 2, further chain): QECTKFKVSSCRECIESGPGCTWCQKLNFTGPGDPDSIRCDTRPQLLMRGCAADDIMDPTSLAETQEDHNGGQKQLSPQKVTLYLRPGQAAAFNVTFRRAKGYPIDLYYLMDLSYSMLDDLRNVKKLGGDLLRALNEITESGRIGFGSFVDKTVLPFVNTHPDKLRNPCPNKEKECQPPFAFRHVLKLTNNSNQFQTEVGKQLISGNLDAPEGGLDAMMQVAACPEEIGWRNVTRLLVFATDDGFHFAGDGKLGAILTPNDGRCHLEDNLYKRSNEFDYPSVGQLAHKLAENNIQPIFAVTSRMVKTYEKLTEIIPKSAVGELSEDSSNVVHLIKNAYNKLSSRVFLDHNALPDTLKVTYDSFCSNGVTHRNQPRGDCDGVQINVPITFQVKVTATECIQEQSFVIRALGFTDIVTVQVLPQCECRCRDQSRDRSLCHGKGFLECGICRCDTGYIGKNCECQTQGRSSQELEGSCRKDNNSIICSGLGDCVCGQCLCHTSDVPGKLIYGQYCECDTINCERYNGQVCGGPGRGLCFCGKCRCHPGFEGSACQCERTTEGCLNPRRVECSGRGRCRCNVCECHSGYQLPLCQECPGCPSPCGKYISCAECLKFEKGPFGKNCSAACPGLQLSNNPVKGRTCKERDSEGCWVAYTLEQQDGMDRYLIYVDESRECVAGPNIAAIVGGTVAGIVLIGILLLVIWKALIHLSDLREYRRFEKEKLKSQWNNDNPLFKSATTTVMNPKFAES

B1: sICAM-1 (soluble ICAM-1), P05362 28-480 (ligand, UniProt P05362 28-480, looked up)
chain: QTSVSPSKVILPRGGSVLVTCSTSCDQPKLLGIETPLPKKELLLPGNNRKVYELSNVQEDSQPMCYSNCPDGQSTAKTFLTVYWTPERVELAPLPSWQPVGKNLTLRCQVEGGAPRANLTVVLLRGEKELKREPAVGEPAEVTTTVLVRRDHHGANFSCRTELDLRPQGLELFENTSAPYQLQTFVLPATPPQLVSPRVLEVDTQGTVVCSLDGLFPVSEAQVHLALGDQRLNPTVTYGNDSFSAKASVSVTAEDEGTQRLTCAVILGNQSQETLQTVTIYSFPAPNVILTKPEVSEGTEVTVKCEAHPRAKVTLNGVPAQPLGPRAQLLLKATPEDNGRSFSCSATLEVAGQLIHKNQTRELRVLYGPRLDERDCPGNWTWPENSQQTPMCQAWGNPLPELKCLKDGTFPLPIGESVTVTRDLEGTYLCRARSTQGEVTRKVTVNVLSPRYE
In assay [1], B1 registered a fold IC50 against compound 3 greater than 100 fold. In assay [2], this molecule showed a Schild regression y-intercept of 8.51. This molecule also yielded an IC50 in assay [3] of 1200 nM.
